By Kd is commonly meant the free concentration of one partner at which half of the binding sites on the other are occupied at equilibrium, for simple one-to-one binding. Broadly, the EC50 is the concentration that produces a half-maximal response. The low end stands for a more potent agent, the high end for a less potent agent.

In patent publication US20230416343A1 one finds Kd, EC50 and Maxi % data, which are given here for 2 molecules.

Read-outs that look alike come from different tables or passages of the source.

Common to all, as to settings: remark: other sources report otherwise
Test [1] deals with T1, Recombinant SARS-CoV2 RBD having a carboxy terminal his tag (SARS-CoV-2), P0DTC2.
The target in test [2] is T1, Recombinant SARS-CoV2 RBD having a …. This is another data set of the same source.
The target of test [3] is T2, SARS-CoV-2 D614G mutant spike protein expressed on HEK293 cells (SARS-CoV-2), P0DTC2.
In test [4] the target is T3, SARS-CoV-2 spike protein expressed on HEK293 cells (SARS-CoV-2), P0DTC2.
Test [5] has as its target T2, SARS-CoV-2 D614G mutant spike protein …. The source holds these as a separate data set.
Test [6] addresses SARS-CoV-2 variant spike protein E484K on HEK293 cells (SARS-CoV-2), P0DTC2.
Test [7] has as its target SARS-CoV-2 variant spike protein F490S on HEK293 cells (SARS-CoV-2), P0DTC2.
Test [8] has as its target SARS-CoV-2 variant spike protein S494P on HEK293 cells (SARS-CoV-2), P0DTC2.
In test [9] the target is SARS-CoV-2 variant spike protein deletion mutant del 243-244 on HEK293 cells (SARS-CoV-2), P0DTC2.
The target of test [10] is T3, SARS-CoV-2 spike protein expressed on …. Kind of test: flow cytometry on HEK293 cells expressing the spike; table 'spike'. Background: In flow cytometry, cells or beads pass a laser one at a time.

B1: antibody S1D2 (antibody, V domains shown)
VH: EVQLVESGGGLIQPGGSLRLSCAASGFTVSSNYMSWVRQAPGKGLEWVSIIYPGGSTNYADSVKGRFTISRDNSRNTLYLQMNSLRAEDTAVYYCARELGYYGMDVWGQGTTVTVSS
VL: DIQMTQSPSSVSASVGDRVTITCRASQGISTWLVWYQQKPGKAPNLLIYGASSLQSGVPSRFSGSGSGTDFTLTISSLQPEDFATYYCQQANSFPYTFGQGTKLEIK
For B1, the Kd was 46 nM in test [1] and 46.2 nM in [2].

B2: S1D2LALA antibody (STI-1499) (antibody, V domains shown)
VH: EVQLVESGGGLIQPGGSLRLSCAASGFTVSSNYMSWVRQAPGKGLEWVSIIYPGGSTNYADSVKGRFTISRDNSRNTLYLQMNSLRAEDTAVYYCARELGYYGMDVWGQGTTVTVSS
VL: DIQMTQSPSSVSASVGDRVTITCRASQGISTWLVWYQQKPGKAPNLLIYGASSLQSGVPSRFSGSGSGTDFTLTISSLQPEDFATYYCQQANSFPYTFGQGTKLEIK
For B2, the 50% effective concentration (EC50) stood at 0.13 µg/mL in [3]; 0.1 µg/mL in [4]; 70 µg/mL in [5]; 140 µg/mL in test [6]; 38 µg/mL in test [7]; 194 µg/mL in [8]. Moreover, the 50% effective concentration (EC50) in [9] was determined as 180 µg/mL. The Maxi % in [3] and in [10] was 100% throughout.
